Paper PMC10746202

What was measured:
[1] = biological target: recombinant WU2 (r)PspA possessing only αHD and PRD (Streptococcus pneumoniae serotype 3 strain WU2); experiment: SPR; Biacore T200; kinetic study, LF at several concentrations in PBS-P+ injected over rPspA amine-coupled to a CM5 chip; 25°C; fitted to a two-state binding curve
[2] = biological target: lactoferrin (Homo sapiens) (UniProt P02788); details: cited from earlier work

Substance	Kd [1] [nM]	Kd [2] [nM]
recombinant lactoferrin (from UniProt P02788 20-710) (natural protein)	3.89	–
mGAPDH (from UniProt P04406)	–	43.8
